Test results reported in PMC9122598, “NASP maintains histone H3–H4 homeostasis through two distinct H3 binding modes” (Nucleic Acids Research, 2022).

System: H3–H4 tetramer
Test: GST pulldown of H3–H4 with frog GST-NASP.Sc
Type: binding
Experimental: As mentioned above the GST-tagged sNASPc, frog NASP.Sc and their mutants could not be separated into dimer and monomer peaks during the purification steps, the conformations of these proteins used for pulldowns were mixtures of dimer and monomer. […] All the samples were analyzed with SDS-PAGE.

B1: frog NASP.S: frog homologue of sNASP (N1/N2); tested as GST-NASP.Sc dimer/monomer mixture (protein)
chain: SAEKADGIDIDTEAKRLMGAGQKHLVMKDVRSAVNLFQEASSLLAKQYGETADECAEAFYSYGMSLLELARLENEGTEEKETEEEDVGNLQLAWEMLDLCKTIFKRQQSKEAQLKAAQAHQKLGEVCIESENYSQAVEDFLACLNIQKEHLEEHDRLLAETHYHLGLAYQYSSKHEEAISHFTQSIGVIEKRMDVLTKQLEASVGELVDEVKKEMDELKDLLPDIKEKIEDSKEAQKNATVTEKALKETLVGGSS
modifications: left off: GST, N-terminal, cleaved
notes: frog homologue of sNASP (N1/N2); tested as GST-NASP.Sc dimer/monomer mixture
With B1 the “Retention of H3 vs H4 in pulldown” value (in the absence of H3 αN-binding) was “retained more H3 than H4” and the “Pulldown binding to H3–H4” value (incubation 0.3 M NaCl, wash […] NaCl) was “H3 αN- and α3-binding sites are conserved”.
